Test results from patent US10801046B2, “Methods and materials for biosynthesizing multifunctional, multivariate molecules via carbon chain modification” (INVISTA NORTH AMERICA S.A.R.L., priority 2016, dated 2020).
Each block holds one molecule with its values, some of them ahead of it.

Experiments:
Assay type in all cases: biochemical
[1] = Carboxylate reductase activity, 7-hydroxyheptanoate to 7-hydroxyheptanal, NADPH consumption at 340 nm; conditions: enhanced by gene product of sfp, 20 min, against empty vector control, FIG. 44
[2] = Carboxylate reductase activity, heptanedioate to 7-oxoheptanoate, NADPH consumption at 340 nm; conditions: enhanced by gene product of sfp, 2 mM substrate, 20 min, against empty vector control, FIG. 43
Procedure: A sequence encoding a HIS-tag was added to the genes from Segniliparus rugosus and Segniliparus rotundus that encode the carboxylate reductases of SEQ ID NOs: 31 (GenBank Accession No. EFV11917.1) and 38 (GenBank Accession No. ADG98140.1), respectively, such that N-terminal HIS tagged carboxylate reductases could be produced. Each of the modified genes was cloned into a pET Duet expression vector along with a sfp gene encoding a HIS-tagged phosphopantetheine transferase from Bacillus subtilis, both under the T7 promoter. Each expression vector was transformed into a BL21[DE3] E. coli host and the resulting recombinant E. coli strains were cultivated at 37° C. in a 250 mL shake flask culture containing 50 mL LB media and antibiotic selection pressure, with shaking at 230 rpm. Each culture was induced overnight at 37° C. using an auto-induction media.
The pellet from each induced shake flask culture was harvested via centrifugation. Each pellet was resuspended and lysed via sonication, and the cell debris was separated from the supernatant via centrifugation. […]
Enzyme activity assays (i.e., from heptanedioate to 7-oxoheptanoate) were performed in triplicate in a buffer composed of a final concentration of 50 mM HEPES buffer (pH=7.5), 2 mM heptanedioate, 10 mM MgCl2, 1 mM ATP, and 1 mM NADPH. […] The consumption of NADPH was monitored by absorbance at 340 nm.

[3] = Aminotransferase activity, heptane-1,7-diamine to 7-aminoheptanal, L-alanine formation by RP-HPLC; conditions: cell free extract, 10 mM substrate, 25° C., 4 h, against empty vector control, FIG. 50
Procedure: A sequence encoding an N-terminal His-tag was added to the Chromobacterium violaceum, Pseudomonas aeruginosa, Pseudomonas syringae, Rhodobacter sphaeroides, Escherichia coli, and Vibrio fluvialis genes encoding the aminotransferases of SEQ ID NOs: 116 (GenBank Accession No. AAQ59697.1), 119 (RefSeq Accession No. NP_417544.5), 125 (GenBank Accession No. AAGO8191.1), 126 (GenBank Accession No. AAY39893.1), 127 (GenBank Accession No. ABA81135.1), and 128 (GenBank Accession No. AEA39183.1), respectively such that N-terminal HIS tagged aminotransferases could be produced. The modified genes were cloned into a pET21a expression vector under the T7 promoter. Each expression vector was transformed into a BL21[DE3] E. coli host. Each resulting recombinant E. coli strain were cultivated at 37° C. in a 250 mL shake flask culture containing 50 mL LB media and antibiotic selection pressure, with shaking at 230 rpm. Each culture was induced overnight at 16° C. using 1 mM IPTG.
(§1) The pellet from each induced shake flask culture was harvested via centrifugation. Each pellet was resuspended and lysed via sonication. The cell debris was separated from the supernatant via centrifugation and the cell free extract was used immediately in enzyme activity assays.
(§2) Enzyme activity assays in the reverse direction (i.e., heptane-1,7-diamine to 7-aminoheptanal) were performed in a buffer composed of a final concentration of 50 mM HEPES buffer (pH=7.5), 10 mM heptane-1,7-diamine, 10 mM pyruvate, and 100 μM pyridoxyl 5′ phosphate. Each enzyme activity assay reaction was initiated by adding cell free extract of the aminotransferase gene product or the empty vector control to the assay buffer containing the heptane-1,7-diamine and then incubated at 25° C. for 4 h, with shaking at 250 rpm. The formation of L-alanine was quantified via RP-HPLC.

[4] = Aminotransferase activity, reverse direction (7-aminoheptanoate to 7-oxoheptanoate), L-alanine formation by RP-HPLC; conditions: cell free extract, 10 mM substrate, 25° C., 4 h, against empty vector control, FIG. 48
Procedure: A sequence encoding an N-terminal His-tag was added to the genes from Chromobacterium violaceum, Pseudomonas syringae, Rhodobacter sphaeroides, and Vibrio Fluvialis encoding the aminotransferases of SEQ ID NOs: 116 (GenBank Accession No. AAQ59697.1), 126 (GenBank Accession No. AAY39893.1), 127 (GenBank Accession No. ABA81135.1), and 128 (GenBank Accession No. AEA39183.1), respectively such that N-terminal HIS tagged aminotransferases could be produced. Each of the resulting modified genes was cloned into a pET21a expression vector under control of the T7 promoter and each expression vector was transformed into a BL21 [DE3] E. coli host. The resulting recombinant E. coli strains were cultivated at 37° C. in a 250 mL shake flask culture containing 50 mL LB media and antibiotic selection pressure, with shaking at 230 rpm. Each culture was induced overnight at 16° C. using 1 mM IPTG.
as §1
as §2, with “7-aminoheptanoate” for “heptane-1,7-diamine”, “7-oxoheptanoate)” for “7-aminoheptanal)”, “7-aminoheptanoate,” for “heptane-1,7-diamine,”, “pyruvate” for “pyruvate,”, “and” for “and then”, “L-alanine from pyruvate” for “L-alanine”

[5] = Aminotransferase activity, 7-aminoheptanol to 7-oxoheptanol, L-alanine formation by RP-HPLC; conditions: cell free extract, 10 mM substrate, 25° C., 4 h, against empty vector control, FIG. 52
Procedure: A nucleotide sequence encoding an N-terminal His-tag was added to the Chromobacterium violaceum, Pseudomonas syringae and Rhodobacter sphaeroides genes encoding the aminotransferases of SEQ ID NOs: 116 (GenBank Accession No. AAQ59697.1), 126 (GenBank Accession No. AAY39893.1), and 127 (GenBank Accession No. ABA81135.1), respectively such that N-terminal HIS tagged aminotransferases could be produced. The modified genes were cloned into a pET21a expression vector under the T7 promoter. Each expression vector was transformed into a BL21[DE3] E. coli host. Each resulting recombinant E. coli strain were cultivated at 37° C. in a 250 mL shake flask culture containing 50 mL LB media and antibiotic selection pressure, with shaking at 230 rpm. Each culture was induced overnight at 16° C. using 1 mM IPTG.
as §1
Enzyme activity assays in the reverse direction (i.e., 7-aminoheptanol to 7-oxoheptanol) were performed in a buffer composed of a final concentration of 50 mM HEPES buffer (pH=7.5), 10 mM 7-aminoheptanol, 10 mM pyruvate, and 100 μM pyridoxyl 5′ phosphate. […] The formation of L-alanine was quantified via RP-HPLC.

[6] = Aminotransferase activity, N7-acetyl-1,7-diaminoheptane to N7-acetyl-7-aminoheptanal, L-alanine formation by RP-HPLC; conditions: cell free extract, 10 mM substrate, 25° C., 4 h, against empty vector control, FIG. 51
Procedure: The activity of the N-terminal His-tagged aminotransferases of SEQ ID NOs: 116 (GenBank Accession No. AAQ59697.1), 119 (RefSeq Accession No. NP_417544.5), 125 (GenBank Accession No. AAGO8191.1), 126 (GenBank Accession No. AAY39893.1), 127 (GenBank Accession No. ABA81135.1), and 128 (GenBank Accession No. AEA39183.1) (see Example 6) for converting N7-acetyl-1,7-diaminoheptane to N7-acetyl-7-aminoheptanal was assayed using a buffer composed of a final concentration of 50 mM HEPES buffer (pH=7.5), 10 mM N7-acetyl-1,7-diaminoheptane, 10 mM pyruvate and 100 μM pyridoxyl 5′ phosphate. Each enzyme activity assay reaction was initiated by adding a cell free extract of the aminotransferases or the empty vector control to the assay buffer containing the N7-acetyl-1,7-diaminoheptane then incubated at 25° C. for 4 h, with shaking at 250 rpm. The formation of L-alanine was quantified via RP-HPLC.

acceptance of heptanedioate as substrate, forming 7-oxoheptanoate [2]: accepted heptanedioate as substrate
B1: SEQ ID NO: 31: Segniliparus rugosus carboxylate reductase (protein)
chain: MGDGEERAKRFFQRIGELSATDPQFAAAAPDPAVVEAVSDPSLSFTRYLDTLMRGYAERPALAHRVGAGYETISYGELWARVGAIAAAWQADGLAPGDFVATVGFTSPDYVAVDLAAARSGLVSVPLQAGASLAQLVGILEETEPKVLAASASSLEGAVACALAAPSVQRLVVFDLRGPDASESAADERRGALADAEEQLARAGRAVVVETLADLAARGEALPEAPLFEPAEGEDPLALLIYTSGSTGAPKGAMYSQRLVSQLWGRTPVVPGMPNISLHYMPLSHSYGRAVLAGALSAGGTAHFTANSDLSTLFEDIALARPTFLALVPRVCEMLFQESQRGQDVAELRERVLGGRLLVAVCGSAPLSPEMRAFMEEVLGFPLLDGYGSTEALGVMRNGIIQRPPVIDYKLVDVPELGYRTTDKPYPRGELCIRSTSLISGYYKRPEITAEVFDAQGYYKTGDVMAEIAPDHLVYVDRSKNVLKLSQGEFVAVAKLEAAYGTSPYVKQIFVYGNSERSFLLAVVVPNAEVLGARDQEEAKPLIAASLQKIAKEAGLQSYEVPRDFLIETEPFTTQNGLLSEVGKLLRPKLKARYGEALEARYDEIAHGQADELRALRDGAGQRPVVETVVRAAVAISGSEGAEVGPEANFADLGGDSLSALSLANLLHDVFEVEVPVRIIIGPTASLAGIAKHIEAERAGASAPTAASVHGAGATRIRASELTLEKFLPEDLLAAAKGLPAADQVRTVLLTGANGWLGRFLALEQLERLARSGQDGGKLICLVRGKDAAAARRRIEETLGTDPALAARFAELAEGRLEVVPGDVGEPKFGLDDAAWDRLAEEVDVIVHPAALVNHVLPYHQLFGPNVVGTAEIIRLAITAKRKPVTYLSTVAVAAGVEPSSFEEDGDIRAVVPERPLGDGYANGYGNSKWAGEVLLREAHELVGLPVAVFRSDMILAHTRYTGQLNVPDQFTRLVLSLLATGIAPKSFYQQGAAGERQRAHYDGIPVDFTAEAITTLGAEPSWFDGGAGFRSFDVFNPHHDGVGLDEFVDWLIEAGHPISRIDDHKEWFARFETAVRGLPEAQRQHSLLPLLRAYSFPHPPVDGSVYPTGKFQGAVKAAQVGSDHDVPHLGKALIVKYADDLKALGLL
modifications: Segniliparus rugosus ATCC BAA-974
notes: Segniliparus rugosus carboxylate reductase
acceptance of 7-hydroxyheptanoate as substrate, forming 7-hydroxyheptanal [1]: accepted 7-hydroxyheptanoate as substrate

acceptance of 7-aminoheptanoate as substrate [4]: accepted 7-aminoheptanote as substrate | acceptance of 7-aminoheptanol as substrate, forming 7-oxoheptanol [5]: accepted 7-aminoheptanol as a substrate
B2: SEQ ID NO: 116: Chromobacterium violaceum aminotransferase (protein, listed as Chromobacterium violaceum)
chain: MQKQRTTSQWRELDAAHHLHPFTDTASLNQAGARVMTRGEGVYLWDSEGNKIIDGMAGLWCVNVGYGRKDFAEAARRQMEELPFYNTFFKTTHPAVVELSSLLAEVTPAGFDRVFYTNSGSESVDTMIRMVRRYWDVQGKPEKKTLIGRWNGYHGSTIGGASLGGMKYMHEQGDLPIPGMAHIEQPWWYKHGKDMTPDEFGVVAARWLEEKILEIGADKVAAFVGEPIQGAGGVIVPPATYWPEIERICRKYDVLLVADEVICGFGRTGEWFGHQHFGFQPDLFTAAKGLSSGYLPIGAVFVGKRVAEGLIAGGDFNHGFTYSGHPVCAAVAHANVAALRDEGIVQRVKDDIGPYMQKRWRETFSRFEHVDDVRGVGMVQAFTLVKNKAKRELFPDFGEIGTLCRDIFFRNNLIMRACGDHIVSAPPLVMTRAEVDEMLAVAERCLEEFEQTLKARGLA
modifications: Chromobacterium violaceum (strain ATCC 12472 / DSM 30191 / JCM 1249 / NBRC 12614 / NCIMB 9131 / NCTC 9757)
notes: Chromobacterium violaceum aminotransferase
acceptance of heptane-1,7-diamine as substrate, forming 7-aminoheptanal [3]: accepted heptane-1,7-diamine as substrate | acceptance of N7-acetyl-1,7-diaminoheptane as substrate, forming N7-acetyl-7-aminoheptanal [6]: accepted N7-acetyl-1,7-diaminoheptane as a substrate
